Columns and labels:
[1] = target: human GC-B (membrane guanylate cyclase B, natriuretic peptide receptor) (human) (UniProt P20594)
[2] = target: human GC-A (membrane guanylate cyclase A, natriuretic peptide receptor) (human) (UniProt P16066)
[3] = target: human GC-A (membrane guanylate cyclase A, natriuretic peptide receptor) (human) (UniProt P16066); remark: listed apart in the source
[4] = target: human GC-B (membrane guanylate cyclase B, natriuretic peptide receptor) (human) (UniProt P20594); remark: listed apart in the source

UniProt P16066, sequence (P16066 33-1061): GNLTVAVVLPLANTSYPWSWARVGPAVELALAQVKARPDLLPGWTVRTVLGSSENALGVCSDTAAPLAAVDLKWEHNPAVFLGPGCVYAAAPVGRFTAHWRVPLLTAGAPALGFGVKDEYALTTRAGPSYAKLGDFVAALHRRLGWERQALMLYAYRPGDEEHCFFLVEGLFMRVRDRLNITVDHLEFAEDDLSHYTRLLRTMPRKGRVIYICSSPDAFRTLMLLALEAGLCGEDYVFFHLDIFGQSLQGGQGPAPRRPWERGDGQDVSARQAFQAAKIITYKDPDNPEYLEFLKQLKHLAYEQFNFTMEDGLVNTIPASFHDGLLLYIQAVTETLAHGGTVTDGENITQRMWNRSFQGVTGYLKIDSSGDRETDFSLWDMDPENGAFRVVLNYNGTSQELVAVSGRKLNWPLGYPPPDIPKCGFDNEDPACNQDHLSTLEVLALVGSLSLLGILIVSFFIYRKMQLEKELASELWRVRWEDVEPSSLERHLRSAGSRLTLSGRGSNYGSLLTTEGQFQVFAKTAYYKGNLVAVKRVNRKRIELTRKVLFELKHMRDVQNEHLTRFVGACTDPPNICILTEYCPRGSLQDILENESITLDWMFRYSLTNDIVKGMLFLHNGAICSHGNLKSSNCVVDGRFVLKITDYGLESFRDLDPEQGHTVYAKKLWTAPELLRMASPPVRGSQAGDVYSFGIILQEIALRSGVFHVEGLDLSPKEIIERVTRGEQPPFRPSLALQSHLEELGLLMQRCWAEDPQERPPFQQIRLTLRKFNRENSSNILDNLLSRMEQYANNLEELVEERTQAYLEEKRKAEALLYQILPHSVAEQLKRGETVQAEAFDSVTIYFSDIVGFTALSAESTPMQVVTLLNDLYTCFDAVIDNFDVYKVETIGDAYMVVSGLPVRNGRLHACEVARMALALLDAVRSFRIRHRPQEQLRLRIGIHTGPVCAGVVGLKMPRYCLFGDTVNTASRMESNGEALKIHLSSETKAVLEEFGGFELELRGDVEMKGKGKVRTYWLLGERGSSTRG
UniProt P20594, sequence (P20594 23-1047): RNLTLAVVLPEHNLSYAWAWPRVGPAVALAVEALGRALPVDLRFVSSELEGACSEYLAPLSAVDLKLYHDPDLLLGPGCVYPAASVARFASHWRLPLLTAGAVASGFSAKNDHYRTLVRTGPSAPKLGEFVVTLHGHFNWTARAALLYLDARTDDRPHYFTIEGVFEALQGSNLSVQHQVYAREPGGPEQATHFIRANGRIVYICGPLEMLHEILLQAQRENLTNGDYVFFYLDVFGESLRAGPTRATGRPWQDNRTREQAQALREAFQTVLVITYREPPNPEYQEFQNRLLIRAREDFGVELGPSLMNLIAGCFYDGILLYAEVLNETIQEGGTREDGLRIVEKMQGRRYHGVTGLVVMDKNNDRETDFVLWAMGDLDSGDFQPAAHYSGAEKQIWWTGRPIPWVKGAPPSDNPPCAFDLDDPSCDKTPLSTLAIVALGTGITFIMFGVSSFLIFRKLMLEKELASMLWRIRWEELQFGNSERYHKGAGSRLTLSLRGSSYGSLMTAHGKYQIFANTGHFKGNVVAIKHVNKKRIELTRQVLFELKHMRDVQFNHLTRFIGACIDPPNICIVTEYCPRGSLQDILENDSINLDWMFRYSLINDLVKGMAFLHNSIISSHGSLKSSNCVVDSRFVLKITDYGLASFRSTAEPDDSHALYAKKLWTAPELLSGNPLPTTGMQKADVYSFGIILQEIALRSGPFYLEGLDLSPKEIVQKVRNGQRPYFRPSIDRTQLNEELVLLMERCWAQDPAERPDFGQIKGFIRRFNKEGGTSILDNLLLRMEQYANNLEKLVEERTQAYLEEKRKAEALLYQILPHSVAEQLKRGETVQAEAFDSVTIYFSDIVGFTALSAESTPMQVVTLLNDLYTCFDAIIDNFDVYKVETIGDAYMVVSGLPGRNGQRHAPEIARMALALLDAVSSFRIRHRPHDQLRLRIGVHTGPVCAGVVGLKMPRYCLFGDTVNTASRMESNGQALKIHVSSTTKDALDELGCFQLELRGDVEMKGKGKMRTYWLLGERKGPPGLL

## human c-type natriuretic peptide (1-53)
[1]
  stimulation of cGMP production in HEK293T cell membranes with increasing CNP, saturation above 4 μM: 10 fold

## human atrial natriuretic factor (1-28) (peptide)
[2]
  stimulation of cGMP production in HEK293T cell membranes with increasing ANP, saturation above 4 μM: 10 fold

## retinal degeneration protein 3 (RD3) (from UniProt Q7Z3Z2 1-195) (natural protein)
[3]
  IC50 of inhibition of guanylate cyclase activity (cGMP synthesis) of GC-A in HEK293T cell membranes activated by 2 μM ANP, increasing RD3; inhibition not complete at 0.5-1 μM RD3: 24 nM
[4]
  IC50 of inhibition of guanylate cyclase activity (cGMP synthesis) of GC-B in HEK293T cell membranes activated by 2 μM CNP, increasing RD3; inhibition not complete at 0.5-1 μM RD3: 29 nM

Source: PMC9812585
